Target: T1, GST alone (UniProt P08515 1-218 = GST)
T1 construct: Negative control of the pull-downs; also called control GST
Assay: GST pull-down, LC-MS/MS
Protocol: Extracts were spun at 14,000 r.p.m. at 4° C., and clarified supernatants were incubated with glutathione 4B Sepharose beads (GE Healthcare) at 4° C. overnight. The glutathione beads were then washed extensively with ice-cold TNE buffer, and bound proteins were subjected to SDS-PAGE followed by immunoblotting analysis. For the samples subjected to mass spectrometry, glutathione bead-bound proteins from equal amounts (600 μg) of mitochondria were further washed with high stringency RIPA buffer following TNE buffer wash to decrease nonspecific interaction. Proteins were then eluted from the glutathione beads in SDS sample buffer, separated by SDS-PAGE and stained with Coomassie. Proteins in the gel were digested with trypsin and analyzed by mass spectrometry (LC-MS/MS) at the Taplin Biological Mass Spectrometry Facility (Harvard Medical School, Boston, Mass.).

T1 sequence (P08515 whole entry): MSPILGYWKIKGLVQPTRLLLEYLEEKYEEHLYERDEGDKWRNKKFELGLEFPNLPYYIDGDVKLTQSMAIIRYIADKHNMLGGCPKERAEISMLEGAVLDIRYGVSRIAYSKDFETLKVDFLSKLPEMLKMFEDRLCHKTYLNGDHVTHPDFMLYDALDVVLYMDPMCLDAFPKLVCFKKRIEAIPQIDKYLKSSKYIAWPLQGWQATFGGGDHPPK

Row | Binder | binding result
1 | Rab5b_IPI:IPI00116563.2 (other, mouse, UniProt P61021 2-215, looked up) TSRSTARPNGQPQASKICQFKLVLLGESAVGKSSLVLRFVKGQFHEYQESTIGAAFLTQSVCLDDTTVKFEIWDTAGQERYHSLAPMYYRGAQAAIVVYDITNQETFARAKTWVKELQRQASPSIVIALAGNKADLANKRMVEYEEAQAYADDNSLLFMETSAKTAMNVNDLFLAIAKKLPKSEPQNLGGAAGRSRGVDLHEQSQQNKSQCCSN | no binding
2 | Uqcrb_IPI:IPI00132347.1 (other, mouse, UniProt Q9D855 2-111, looked up) AGRSAVSASSKWLDGFRKWYYNAAGFNKLGLMRDDTLHETEDVKEAIRRLPEDLYNDRMLRIKRALDLTMRHQILPKDQWTKYEEDKFYLEPYLKEVIRERKEREEWAKK | no binding
3 | Rab2a_IPI:IPI00137227.1 (other, mouse, UniProt P53994 2-212, looked up) AYAYLFKYIIIGDTGVGKSCLLLQFTDKRFQPVHDLTIGVEFGARMITIDGKQIKLQIWDTAGQESFRSITRSYYRGAAGALLVYDITRRDTFNHLTTWLEDARQHSNSNMVIMLIGNKSDLESRREVKKEEGEAFAREHGLIFMETSAKTASNVEEAFINTAKEIYEKIQEGVFDINNEANGIKIGPQHAATNASHGSNQGGQQAGGGCC | no binding
4 | Chchd4_IPI:IPI00124389.1 (other, mouse, UniProt Q8VEA4 1-139, looked up) MSYCRQEGKDRIIFVTKEDHETPSSAELVADDPNDPYEEHGLILPNGDINWNCPCLGGMASGPCGEQFKSAFSCFHYSTEDIKGSDCIDQFRAMQECMQKYPDLYPQDEEEEEEAKPVEPVEETADTKVSAAKEQGTSS | no binding
5 | Brp44_IPI:IPI00131896.1 (other, mouse, UniProt Q9D023 1-127, looked up) MAAAGARGLRATYHRLMDKVELLLPKKLRPLYNHPAGPRTVFFWAPIMKWGLVCAGLADMARPAEKLSTAQSTVLMATGFIWSRYSLVIIPKNWSLFAVNFFVGSAGASQLFRIWRYNQELKSKGIQ | no binding
6 | Uqcrq_IPI:IPI00224210.5 (other, mouse, UniProt Q9CQ69 1-82, looked up) MGREFGNLARIRHVISYSLSPFEQRAFPSYFSKGIPNVLRRTRERILRVAPPFVVVYLIYTWGNQEFEQSKRKNPAMYENDK | no binding
7 | Atp5f1_IPI:IPI00341282.2 (other, mouse, UniProt Q9CQQ7 43-256, looked up) PLPPLPEYGGKVRLGLIPEEFFQFLYPKTGVTGPYVLGTGLSLYFLSKEIYVITPETFSTISVVGLIVYVIKKYGASFGEFIDKLNEEKIAQLEEVKQSSMKQIQDAIDMEKAQQALVQKRHYLFDVQRNNIALALEVTYRERLHKAYKEVKNRLDYHISVQNMMRRKEEEHMIDWVEKHVVKSISVQQEKETIAKCIEDLKLLAKKAQAQPIM | no binding
8 | Lyrm4_IPI:IPI00169804.1 (other, mouse, UniProt Q8K215 1-91, looked up) MAASSRAQVLDLYRAMMRESKHFSAYNYRMYAVRRIRDAFRENKNVKDPVEIQALVNKAKRDLEIIRRQVHIGQLYSTDKLIIENQEKPRT | no binding
9 | Synj2bp_IPI:IPI00109206.1 (other, mouse, UniProt Q9D6K5 1-145, looked up) MNGRVDYLVTEEEINLTRGPSGLGFNIVGGTDQQYVSNDSGIYVSRIKEDGAAAQDGRLQEGDKILSVNGQDLKNLLHQDAVDLFRNAGCAVSLRVQHRLPVQNGPIVHRGEGEPSGVPVAMVLLPVFALTMVAVWAFVRYRKQL | no binding
10 | Lyrm7_IPI:IPI00117832.1 (other, mouse, UniProt Q9DA03 1-104, looked up) MGQPAKVLQLFKTLHRTRQQVFKNDKRALEAARVKINEEFKKHKNETSPEKIKEMMKLGSDVELLLRTAVIQGIHTDHDTLQLVPRKDLLTENVPYCDAPTQKQ | no binding
11 | Pfn2_IPI:IPI00227805.6 (other, mouse, UniProt Q9JJV2 2-140, looked up) AGWQSYVDNLMCDGCCQEAAIVGYCDAKYVWAATAGGVFQSITPVEIDMIVGKDREGFFTNGLTLGAKKCSVIRDSLYVDGDCTMDIRTKSQGGEPTYNVAVGRAGRVLVFVMGKEGVHGGGLNKKAYSMAKYLRDSGF | no binding
12 | Fahd1_IPI:IPI00468850.1 (other, mouse, UniProt Q8R0F8 25-221, looked up) ADHVKEMRSTVLSEPVLFLKPSTAYAPEGSPVLMPAYCRNLHHEVELGVLLGKRGEAIPEAAAMDYVAGYALCLDMTARDVQEECKKKGLPWTLAKSFTSSCPVSAFVPKEKIPDPHALRLWLKVNGELRQEGKTSSMIFSIPYIISYVSKIITLEEGDLILTGTPKGVGPIKENDEIEAGIDGVVSMRFKVKRSEY | no binding
13 | Ndufa11_IPI:IPI00318645.6 (other, mouse, UniProt Q9D8B4 1-141, looked up) MVKRFFESYHEVPDGTQCHRKTYITTALGGICGIIGSAYRVSLNPADSTLEAVARVGRYTFTAAAIGAMFGLTTCVSAQVREKPDDPLNYFIGGCAGGLTLGARTHSYGTAAMGCVYMGTAAALFKIGKLEGWELFPTPKV | no binding
14 | Tomm20_IPI:IPI00120715.1 (other, mouse, UniProt Q9DCC8 1-145, looked up) MVGRNSAIAAGVCGALFIGYCIYFDRKRRSDPNFKNRLRERRKKQKLAKERAGLSKLPDLKDAEAVQKFFLEEIQLGEELLAQGDYEKGVDHLTNAIAVCGQPQQLLQVLQQTLPPPVFQMLLTKLPTISQRIVSAQSLAEDDVE | no binding
15 | Iscu_IPI:IPI00110578.1 (other, mouse, UniProt Q9D7P6 36-168, looked up) YHKKVVDHYENPRNVGSLDKTSKNVGTGLVGAPACGDVMKLQIQVDEKGKIVDARFKTFGCGSAIASSSLATEWVKGKTVEEALTIKNTDIAKELCLPPVKLHCSMLAEDAIKAALADYKLKQESKKEEPEKQ | no binding
16 | Ppdpf_IPI:IPI00133078.1 (other, mouse, UniProt Q9CR37 1-115, looked up) MAAIPSSGSLVATHDYYRRRLGSSSSSSSGGSAEYPGDAVLQSPGLPKADPGHWWASFFFGKSTLPFMTTVLESPERSAESPQVSRSPMTCGLTPETMKQQPVIHSGQTNPRDLS | no binding

Continued, values first:

Row | binding result | Binder
17 | no binding | Mrps33_IPI:IPI00135214.1 (other, mouse, UniProt Q9D2R8 2-106, looked up) SPLSEYALRMSRLSARIFGEVARSTDSKSMKVVSLFSEQPLAKKKETYDWYPNHNTYFALMGNLRFLGLYRDEHQDFKDEQRRLKKLRGKGKPRKGEGKRATKKK
18 | no binding | Cplx1_IPI:IPI00132278.1 (other, mouse, UniProt P63040 1-134, looked up) MEFVMKQALGGATKDMGKMLGGDEEKDPDAAKKEEERQEALRQAEEERKAKYAKMEAEREVMRQGIRDKYGIKKKEEREAEAQAAMEANSEGSLTRPKKAIPPGCGDEPEEEDESILDTVIKYLPGPLQDMFKK
19 | no binding | Mrpl43_IPI:IPI00278781.1 (other, mouse, UniProt Q99N89 1-183, looked up) MTGRGTSSRFLTSVLHNGLGRYVQQLQRLSLSLSRDAPSSRGAREFVEREVTDFARRNPGVVVYVNPRPCAMPRIVAEYLNGAVREENVNSKSVEEIKSLVQKLADQSGLDVIRIRKPFHTDNPSIQGQWTPSPTNGLPSTGCGPENSGILLQLRCKHSKEPGALDRERDRIGSSFGFQAQAE
20 | no binding | Cplx2_IPI:IPI00111501.1 (other, mouse, UniProt P84086 1-134, looked up) MDFVMKQALGGATKDMGKMLGGEEEKDPDAQKKEEERQEALRQQEEERKAKHARMEAEREKVRQQIRDKYGLKKKEEKEAEEKAALEQPCEGSLTRPKKAIPAGCGDEEEEEEESILDTVLKYLPGPLQDMFKK
21 | no binding | Fabp5_IPI:IPI00114162.3 (other, mouse, UniProt Q05816 2-135, looked up) ASLKDLEGKWRLMESHGFEEYMKELGVGLALRKMAAMAKPDCIITCDGNNITVKTESTVKTTVFSCNLGEKFDETTADGRKTETVCTFQDGALVQHQQWDGKESTITRKLKDGKMIVECVMNNATCTRVYEKVQ
22 | no binding | Hint2_IPI:IPI00133034.3 (other, mouse, UniProt Q9D0S9 18-163, looked up) LAAAGARGAQVRGNAGVSDGSEVAKAQKAAPGGASPTIFSRILDRSLPADILYEDQQCLVFRDVAPQAPVHFLVIPRKPIPRISQAEEDDQQLLGHLLLVAKKIAQAQGLKDGYRLVVNDGKMGAQSVYHLHIHVLGGRQLQWPPG
23 | no binding | Mrpl14_IPI:IPI00133778.1 (other, mouse, UniProt Q9D1I6 31-145, looked up) AVQKMTRVRVVDNSALGSTPYHRPPRCIHVYNKSGVGKVGDQILLAIRGQKKKALIVGHRMPGSRMTPKFDSNNVVLIEDNGNPVGTRIKIPIPTSLRRREGEYSKVLAIAQNFV
24 | no binding | C1qbp_IPI:IPI00132799.4 (other, mouse, UniProt O35658 71-278, looked up) LHTEGDKAFVEFLTDEIKEEKKIQKHKSLPKMSGDWELEVNGTEAKLLRKVAGEKITVTFNINNSIPPTFDGEEEPSQGQKAEEQEPERTSTPNFVVEVTKTDGKKTLVLDCHYPEDEIGHEDEAESDIFSIKEVSFQATGDSEWRDTNYTLNTDSLDWALYDHLMDFLADRGVDNTFADELVELSTALEHQEYITFLEDLKSFVKNQ
25 | no binding | Cisd3_IPI:IPI00345740.4 (other, mouse, UniProt B1AR13 1-137, looked up) MGFRRLSFPTDFIFLFPNHICLPALSKPYQRREISSWLARWFPKDPAKPVVAQKTPIRLELVAGKTYRWCVCGRSKNQPFCDGSHFFQRTGLSPLKFKAQETRTVALCTCKATQRPPYCDGTHKSEQVQKAEVGSPL
26 | no binding | Tim23 (endogenous, mouse forebrain mitochondria) (other, UniProt Q9WTQ8 1-209, looked up, also called Timm23_IPI:IPI00123712.1; Tim23 subunit) MEGGGRSSNKSTSGLAGFFGAGGAGYSNADLAGVPLTGMNPLSPYLNVDPRYLVQDTDEFILPTGANKTRGRFELAFFTIGGCCMTGAAFGAMNGLRLGLKETQSMAWSKPRNVQILNMVTRQGALWANTLGSLALLYSAFGVIIEKTRGAEDDLNTVAAGTMTGMLYKCTGGLRGIARGGLAGLTLTSLYALYNNWVHMKGSLLQQSL
27 | no binding | Rab15_IPI:IPI00170032.1 (other, Natural C-terminal geranylgeranylation of the cysteines (CWC motif) in the endogenous protein is not carried by the letters.) MAKQYDVLFRLLLIGDSGVGKTCLLCRFTDNEFHSSHISTIGVDFKMKTIDVDGIKVRIQIWDTAGQERYQTITKQYYRRAQGIFLVYDISSERSYQHIMKWVSDVDEYAPEGVQKILIGNKADEEQKRQVGREQGQQLAKEYGMDFYETSACTNLNIKESFTRLTELVLQAHRKELDGLRTRASNELALAELEEDEGKPEGPANSSKTCWC

Source: patent publication US20200085917A1 (UNIVERSITY OF PITTSBURGH OF THE COMMONWEALTH SYSTEM OF …, published 2020)
